Test results published in patent US20260151519A1 (AKTIS ONCOLOGY, published 2026).
Primed or numbered codes have the meaning given here. Where no end group is shown, it is not given here. [ ]: non-standard residue; d: D form. The star is where a group is joined. Biotin = O=C1N[C@H]2[C@H](CS[C@H]2CCCCC(=O)*)N1; Lys(Me3) = C[N+](C)(C)CCCC[C@H](N)C(=O)O; PEG4′ = not defined here

Legend:
Experiment in all cases: cell microarray on HEK293 cells
EDN2 = target: T1, EDN2 (human, UniProt P20800 49-69)
T1 construct: whole, on cells; Secreted targets were tethered to the plasma membrane
T1 chain (looked up): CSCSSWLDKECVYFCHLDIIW
Description: (§1) Initially, two pools of compounds were tested. […] To perform this assay, HEK293 cells were plated on a dish and localized spots of cells were transiently over-expressed with a single cDNA encoding for GFP and one of the 6,416 targets. Included in this library were multiple clones for the Nectin family members, including plasma membrane, non-tethered secreted, and tethered secreted forms of Nectin-1, 2, 3, and 4. Secreted protein targets were tethered to the plasma membrane to aid in detection. The molecule pools were incubated on the fixed, over-expressing cell microarrays (n=2 per protein), and binding was visualized using Alexa Fluor 647 streptavidin fluorescence.

MFSD2B = target: T2, MFSD2B (human, UniProt A6NFX1 1-504)
T2 construct: whole, on cells
T2 sequence (looked up): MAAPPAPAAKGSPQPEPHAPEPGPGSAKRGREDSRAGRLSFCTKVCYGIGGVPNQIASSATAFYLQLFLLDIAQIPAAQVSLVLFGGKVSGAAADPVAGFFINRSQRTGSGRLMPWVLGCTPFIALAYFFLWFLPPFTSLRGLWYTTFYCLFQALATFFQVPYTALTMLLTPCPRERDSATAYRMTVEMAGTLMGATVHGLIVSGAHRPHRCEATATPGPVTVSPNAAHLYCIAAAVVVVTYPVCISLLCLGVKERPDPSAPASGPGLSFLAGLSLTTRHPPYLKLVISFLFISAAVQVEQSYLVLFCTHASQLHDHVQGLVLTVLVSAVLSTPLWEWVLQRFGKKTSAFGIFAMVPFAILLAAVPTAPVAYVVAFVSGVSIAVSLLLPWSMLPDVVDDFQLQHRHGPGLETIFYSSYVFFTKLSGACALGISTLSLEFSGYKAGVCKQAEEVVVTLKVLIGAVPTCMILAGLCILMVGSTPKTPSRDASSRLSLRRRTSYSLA
Description: as §1

PAPPA = target: T3, PAPPA (human, UniProt Q13219 82-1627)
T3 construct: whole, on cells; Secreted targets were tethered to the plasma membrane
Description: as §1

IGFBP4 = target: T4, IGFBP4 (human, UniProt P22692 22-258)
T4 construct: whole, on cells; Secreted targets were tethered to the plasma membrane
T4 sequence (looked up): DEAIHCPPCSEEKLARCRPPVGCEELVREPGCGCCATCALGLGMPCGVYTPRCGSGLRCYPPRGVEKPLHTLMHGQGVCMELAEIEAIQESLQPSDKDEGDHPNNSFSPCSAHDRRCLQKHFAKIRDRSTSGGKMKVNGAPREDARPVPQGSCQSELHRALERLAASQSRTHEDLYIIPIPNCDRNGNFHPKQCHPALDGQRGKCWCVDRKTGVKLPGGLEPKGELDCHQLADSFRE
Description: as §1

TRPV4 = target: T5, TRPV4 (human, UniProt Q9HBA0 1-871)
T5 construct: whole, on cells
Description: as §1

CXCL12 = target: T6, CXCL12 (human, UniProt P48061 22-93)
T6 construct: whole, on cells; Secreted targets were tethered to the plasma membrane
Description: as §1

SLC22A23 = target: T7, SLC22A23 (human, UniProt A1A5C7 1-686)
T7 construct: whole, on cells
T7 sequence (looked up): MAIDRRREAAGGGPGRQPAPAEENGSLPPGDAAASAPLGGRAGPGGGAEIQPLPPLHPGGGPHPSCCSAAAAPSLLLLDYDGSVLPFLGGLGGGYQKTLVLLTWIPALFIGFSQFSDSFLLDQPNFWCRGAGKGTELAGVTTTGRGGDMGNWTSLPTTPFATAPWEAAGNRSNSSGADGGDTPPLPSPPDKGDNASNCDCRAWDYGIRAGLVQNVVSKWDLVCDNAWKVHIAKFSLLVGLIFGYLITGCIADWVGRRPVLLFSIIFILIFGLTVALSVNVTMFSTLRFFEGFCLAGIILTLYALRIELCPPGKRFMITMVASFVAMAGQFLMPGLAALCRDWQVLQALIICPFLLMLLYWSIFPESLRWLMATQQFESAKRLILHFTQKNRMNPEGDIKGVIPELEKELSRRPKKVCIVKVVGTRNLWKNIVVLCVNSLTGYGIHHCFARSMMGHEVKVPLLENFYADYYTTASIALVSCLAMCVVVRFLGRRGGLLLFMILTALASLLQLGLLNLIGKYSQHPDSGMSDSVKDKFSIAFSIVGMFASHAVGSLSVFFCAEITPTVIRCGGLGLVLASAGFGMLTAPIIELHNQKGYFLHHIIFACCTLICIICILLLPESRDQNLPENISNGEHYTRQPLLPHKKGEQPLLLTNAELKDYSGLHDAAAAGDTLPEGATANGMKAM
Description: as §1

IGFBP3 = target: T8, IGFBP3 (human, UniProt P17936 28-291)
T8 construct: whole, on cells; Secreted targets were tethered to the plasma membrane
Description: as §1

GLP2R = target: T9, GLP2R (human, UniProt O95838 1-553)
T9 construct: whole, on cells
T9 sequence (looked up): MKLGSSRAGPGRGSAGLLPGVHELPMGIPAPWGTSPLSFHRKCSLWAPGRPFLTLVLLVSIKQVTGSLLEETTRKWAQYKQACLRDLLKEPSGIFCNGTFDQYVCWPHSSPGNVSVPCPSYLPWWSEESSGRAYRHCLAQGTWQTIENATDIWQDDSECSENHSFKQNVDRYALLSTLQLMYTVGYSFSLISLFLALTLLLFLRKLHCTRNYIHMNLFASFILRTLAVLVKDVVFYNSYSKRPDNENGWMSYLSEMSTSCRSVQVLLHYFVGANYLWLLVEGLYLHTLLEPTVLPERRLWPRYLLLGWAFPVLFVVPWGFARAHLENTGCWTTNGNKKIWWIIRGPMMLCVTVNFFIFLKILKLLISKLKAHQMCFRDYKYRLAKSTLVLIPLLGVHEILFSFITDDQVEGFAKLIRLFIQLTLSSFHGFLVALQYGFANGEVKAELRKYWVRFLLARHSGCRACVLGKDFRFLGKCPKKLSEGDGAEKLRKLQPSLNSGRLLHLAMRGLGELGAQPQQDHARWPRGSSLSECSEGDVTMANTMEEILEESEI
Description: as §1

Measured: binding result

T5 sequence (Q9HBA0 whole entry): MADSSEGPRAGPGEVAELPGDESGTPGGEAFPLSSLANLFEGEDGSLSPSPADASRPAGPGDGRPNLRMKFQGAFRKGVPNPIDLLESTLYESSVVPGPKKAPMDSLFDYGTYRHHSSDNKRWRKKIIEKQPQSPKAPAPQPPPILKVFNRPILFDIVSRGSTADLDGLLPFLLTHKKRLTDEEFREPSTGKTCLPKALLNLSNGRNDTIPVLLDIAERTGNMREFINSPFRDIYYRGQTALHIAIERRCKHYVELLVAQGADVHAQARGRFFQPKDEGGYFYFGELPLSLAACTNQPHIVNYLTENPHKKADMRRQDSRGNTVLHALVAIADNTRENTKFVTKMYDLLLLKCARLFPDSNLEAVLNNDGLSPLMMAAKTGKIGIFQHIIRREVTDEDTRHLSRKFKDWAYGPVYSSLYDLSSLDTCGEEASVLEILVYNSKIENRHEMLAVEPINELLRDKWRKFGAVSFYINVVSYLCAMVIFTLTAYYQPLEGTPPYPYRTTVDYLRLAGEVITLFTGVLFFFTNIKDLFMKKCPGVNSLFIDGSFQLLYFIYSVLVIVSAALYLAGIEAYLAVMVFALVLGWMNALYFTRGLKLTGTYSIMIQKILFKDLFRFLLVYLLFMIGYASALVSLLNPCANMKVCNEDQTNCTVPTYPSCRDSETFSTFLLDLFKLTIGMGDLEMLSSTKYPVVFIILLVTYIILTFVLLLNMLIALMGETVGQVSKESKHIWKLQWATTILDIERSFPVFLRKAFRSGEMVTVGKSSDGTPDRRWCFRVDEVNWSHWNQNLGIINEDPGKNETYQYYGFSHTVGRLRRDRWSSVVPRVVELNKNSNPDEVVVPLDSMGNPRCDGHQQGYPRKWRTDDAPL
T6 sequence (P48061 22-93): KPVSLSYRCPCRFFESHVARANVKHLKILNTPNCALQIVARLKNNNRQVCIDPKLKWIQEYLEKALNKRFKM
T3 sequence (Q13219 82-1627): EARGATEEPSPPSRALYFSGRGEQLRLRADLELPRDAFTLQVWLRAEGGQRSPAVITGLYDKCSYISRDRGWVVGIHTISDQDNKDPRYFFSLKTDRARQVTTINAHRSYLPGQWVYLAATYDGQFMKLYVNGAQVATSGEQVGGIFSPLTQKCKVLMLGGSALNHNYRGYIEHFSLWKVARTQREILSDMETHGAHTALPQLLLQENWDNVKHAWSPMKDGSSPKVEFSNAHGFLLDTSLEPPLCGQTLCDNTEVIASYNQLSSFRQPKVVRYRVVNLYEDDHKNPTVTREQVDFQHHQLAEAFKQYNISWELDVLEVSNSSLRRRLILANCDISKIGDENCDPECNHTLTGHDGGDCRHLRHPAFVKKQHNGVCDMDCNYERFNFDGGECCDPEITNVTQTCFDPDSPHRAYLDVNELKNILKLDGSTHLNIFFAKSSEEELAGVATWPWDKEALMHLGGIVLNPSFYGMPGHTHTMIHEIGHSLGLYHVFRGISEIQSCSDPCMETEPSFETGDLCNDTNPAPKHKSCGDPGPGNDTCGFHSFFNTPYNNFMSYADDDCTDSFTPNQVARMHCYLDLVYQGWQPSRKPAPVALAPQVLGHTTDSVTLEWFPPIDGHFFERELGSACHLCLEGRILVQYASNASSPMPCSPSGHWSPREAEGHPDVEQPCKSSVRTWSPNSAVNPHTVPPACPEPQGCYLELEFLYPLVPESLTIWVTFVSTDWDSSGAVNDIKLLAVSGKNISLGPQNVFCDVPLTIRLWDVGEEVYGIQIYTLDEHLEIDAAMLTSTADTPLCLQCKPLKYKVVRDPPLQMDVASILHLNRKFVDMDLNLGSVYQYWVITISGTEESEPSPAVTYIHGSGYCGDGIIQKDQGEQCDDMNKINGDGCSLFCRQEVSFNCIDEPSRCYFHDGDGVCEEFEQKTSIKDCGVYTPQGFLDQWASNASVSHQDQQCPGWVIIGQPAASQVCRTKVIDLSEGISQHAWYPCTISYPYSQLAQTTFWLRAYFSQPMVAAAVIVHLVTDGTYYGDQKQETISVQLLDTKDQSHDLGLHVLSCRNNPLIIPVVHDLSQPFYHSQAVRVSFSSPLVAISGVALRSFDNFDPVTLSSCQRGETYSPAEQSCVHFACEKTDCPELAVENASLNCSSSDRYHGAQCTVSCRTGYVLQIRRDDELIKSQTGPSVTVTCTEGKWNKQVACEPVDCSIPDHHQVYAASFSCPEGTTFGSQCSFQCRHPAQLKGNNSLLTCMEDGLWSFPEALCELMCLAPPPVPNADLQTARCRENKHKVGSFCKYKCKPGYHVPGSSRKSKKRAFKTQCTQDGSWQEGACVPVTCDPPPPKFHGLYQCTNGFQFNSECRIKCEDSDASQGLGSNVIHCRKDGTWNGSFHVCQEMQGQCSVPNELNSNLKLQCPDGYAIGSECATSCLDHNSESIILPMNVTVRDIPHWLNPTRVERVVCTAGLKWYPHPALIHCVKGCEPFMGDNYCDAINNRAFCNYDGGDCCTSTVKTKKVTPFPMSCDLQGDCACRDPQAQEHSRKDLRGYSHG
T8 sequence (P17936 28-291): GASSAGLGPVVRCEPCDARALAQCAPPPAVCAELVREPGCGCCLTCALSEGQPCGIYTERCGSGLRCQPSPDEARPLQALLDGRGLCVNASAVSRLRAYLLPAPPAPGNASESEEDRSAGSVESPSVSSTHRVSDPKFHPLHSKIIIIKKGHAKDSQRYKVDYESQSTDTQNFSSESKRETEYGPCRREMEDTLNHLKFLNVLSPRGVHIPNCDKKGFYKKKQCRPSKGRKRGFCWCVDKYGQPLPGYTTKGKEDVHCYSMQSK

{Biotin-PEG4′}-CDYDEQFFTALKRLRGADICEYIQASFQYLPGECIEEILDNLGCS (designed binder, cysteine pairing not given here) [C208]
no binding (tested: 2 µg/mL): all assays above

{Biotin-PEG4′}-CDYDEQFFTALKRLRGGDICEYIQASFQYLPGLCIEEILDNLGCS (designed binder, cysteine pairing not given here) [C190]
no binding (tested: 2 µg/mL): all assays above

{Biotin-PEG4′}-CDYDEQFFTALARLRGADICEYIQASFQYLPGECIEEILDNLGCS (designed binder, cysteine pairing not given here) [C247]
no binding (tested: 2 µg/mL): all assays above

{Biotin-PEG4′}-CEYDEQFFTALKRLRGDDICDYIQASFQYLPGLCIEEILDNLGCS (designed binder, cysteine pairing not given here) [C197]
no binding (tested: 2 µg/mL): all assays above

{Biotin-PEG4′}-CEYDEEFFTALARLRGGDICQYIQA[Lys(Me3)]FQYLPALCIEEILDNLGCS (designed binder, cysteine pairing not given here) [C253]
no binding (tested: 2 µg/mL): all assays above
